Article PMC12462500

Target: SNAP-tagged human melanocortin-4 receptor (SNAP-MC4R) (human) (UniProt P32245)
UniProt P32245, sequence (P32245 whole entry): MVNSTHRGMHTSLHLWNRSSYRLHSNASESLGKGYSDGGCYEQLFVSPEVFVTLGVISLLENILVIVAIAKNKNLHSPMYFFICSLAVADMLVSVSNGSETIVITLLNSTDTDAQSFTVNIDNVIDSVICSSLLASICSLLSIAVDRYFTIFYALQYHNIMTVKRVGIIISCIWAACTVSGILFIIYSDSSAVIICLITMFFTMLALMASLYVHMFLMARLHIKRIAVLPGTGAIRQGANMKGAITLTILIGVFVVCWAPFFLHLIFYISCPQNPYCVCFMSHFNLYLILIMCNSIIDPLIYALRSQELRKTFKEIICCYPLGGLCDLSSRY

EC50 of α-MSH-stimulated cAMP production (Epac-S^H187 FRET biosensor, HEK293), MC4R + mock: 4.5 nM
EC50 of α-MSH-stimulated cAMP production (Epac-S^H187 FRET biosensor, HEK293), MC4R co-expressed with MRAP2 (1 + 1 or 1 + 4): 1.3 nM
Substance: α-MSH (peptide)
